Data as given in patent publication EP4552657A1, “RADIOPHARMACEUTICAL COMPLEXES AND COMBINATIONS” (priority 2023, dated 2025).

T1: human recombinant DLL3 antigen (Homo sapiens, UniProt Q9NYJ7)
T1 sequence (Q9NYJ7 27-618): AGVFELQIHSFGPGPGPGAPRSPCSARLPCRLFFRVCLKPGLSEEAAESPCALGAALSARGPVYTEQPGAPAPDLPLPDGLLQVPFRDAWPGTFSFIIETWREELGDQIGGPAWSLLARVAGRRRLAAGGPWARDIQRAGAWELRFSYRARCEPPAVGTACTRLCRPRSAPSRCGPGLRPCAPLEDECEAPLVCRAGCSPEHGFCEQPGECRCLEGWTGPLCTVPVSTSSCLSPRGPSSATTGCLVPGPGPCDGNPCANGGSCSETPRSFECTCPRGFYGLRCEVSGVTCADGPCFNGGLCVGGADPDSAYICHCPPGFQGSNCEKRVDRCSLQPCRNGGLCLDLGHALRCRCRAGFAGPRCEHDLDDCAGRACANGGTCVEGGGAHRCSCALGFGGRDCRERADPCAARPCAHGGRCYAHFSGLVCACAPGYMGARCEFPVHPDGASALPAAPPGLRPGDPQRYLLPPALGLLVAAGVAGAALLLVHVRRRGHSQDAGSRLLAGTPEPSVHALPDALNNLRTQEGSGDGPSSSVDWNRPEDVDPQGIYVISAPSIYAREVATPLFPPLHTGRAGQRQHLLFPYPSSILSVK

T2: recombinant human DLL3 (Homo sapiens, UniProt Q9NYJ7)
T2 sequence (Q9NYJ7 27-618): T1 sequence (Q9NYJ7 27-618)

B1: Rovalpituzumab-DOTA (conjugate, chains of the INN, looked up)
VH: QVQLVQSGAEVKKPGASVKVSCKASGYTFTNYGMNWVRQAPGQGLEWMGWINTYTGEPTYADDFKGRVTMTTDTSTSTAYMELRSLRSDDTAVYYCARIGDSSPSDYWGQGTLVTVSS
VL: EIVMTQSPATLSVSPGERATLSCKASQSVSNDVVWYQQKPGQAPRLLIYYASNRYTGIPARFSGSGSGTEFTLTISSLQSEDFAVYYCQQDYTSPWTFGQGTKLEIK
modifications: DOTA chelator conjugate
B2: Ac-225-macropa-Rovalpituzumab (conjugate, chains of the INN, looked up)
VH: B1 VH
VL: B1 VL
modifications: macropa chelator, actinium-225

Columns and labels:
[1] = biological target: T1, human recombinant DLL3 antigen; assay: ELISA, binding potency to human recombinant DLL3 antigen; details: compared to unconjugated Rovalpituzumab
Experimental: The relevant antigen was immobilized on ELISA plate by absorption. The plate was washed (PBS with 0.1% Tween 20) and incubated with blocking buffer (PBS + 3% BSA) for 2 h ± 1 h to reduce unspecific binding. Relevant antibodies and ACCs diluted in assay buffer (PBS with 0.05% Tween 20 + 1.5% BSA). The blocking buffer was discarded, and the antibodies and ACCs and controls were applied in triplicates to the plate according to a plate set-up defined in each protocol. After incubation for 1 h ± 30 min at RT, the plate was washed. A horse radish peroxidase (HRP)-conjugated secondary antibody binding specifically to the primary mAb (anti-human IgG-HRP) was added to the plate. After incubation for 1 hour ± 30 min at RT, the plate was washed. A chromogenic substrate (2,2'-azino-bis (3-ethylbenzothiazoline-6-sulphonic acid) (ABTS)), for HRP leading to the formation of a green color was added to the plate and used for detection. The absorbance of the colored reaction product was measured with an absorbance plate reader, e.g. EnVision 2103 Multilabel Reader from Perkin Elmer, or iMark Microplate Absorbance Reader from Bio-Rad.
Absorbance against the log of the antibody concentration was plotted on the GraphPad Prism software.
The binding potency of Rovalpituzumab-macropa, Rovalpituzumab-DOTA was compared to unconjugated Rovalpituzumab by using an ELISA assay. […]

recombinant human DLL3 = biological target: T2, recombinant human DLL3; assay: Immunoreactive fraction (IRF), binding to DLL3-coated beads; details: 20 kBq/µg
Experimental: Shortly after completion of the radiolabeling, the binding was assessed by measuring the fraction of radiolabeled antibody-chelator conjugate bound to relevant antigen coated magnetic beads (Thermo Fisher Scientific). In short, beads were placed in 2 mL Eppendorf tubes in 90 µL buffer (PBS/0.1% Tween 20/1% BSA). The radiolabeled compounds were diluted to 5 Bq/µL in buffer and 50 Bq were added to each bead-containing tube. The binding lasted for 60 min while shaking at 750 rpm at room temperature. After completion of the binding step, magnet (DynaMag-2) was used to separate the beads from […] supernatant. The radio activities in the supernatant and in the beads of each sample were measured using a high purity Germanium detector (Ortec). […] Total binding was defined as [(activity in beads […])/ (total activity)] × 100.

Row | Molecule | EC50 [1] | max absorbance value [1] | amount of DLL3-coated beads at which the maximum binding was achieved (recombinant human DLL3) | maximum binding (IRF) (recombinant human DLL3; 10 µg of DLL3-coated beads)
1 | B1 | increased EC50 | Slightly lower max absorbance value | – | –
2 | B2 | – | – | 10 µg | 86%
